Test results taken from patent publication US20260167702A1 (Dana-Farber, published 2026).
Read-outs that look alike come from different tables or passages of the source.

What was measured:
[1] = target: T1, recombinant full length HA of A/Vietnam/1203/04 (H5-VN04) (influenza A virus A/Vietnam/1203/04 …)
[2] = target: T1, recombinant full length HA of …; remark: listed apart in the source
[3] = target: T2, recombinant full length HA of A/Perth/16/09 (H3-PE09) (influenza A virus A/Perth/16/09 (H3N2))
[4] = target: full length HA of A/Vietnam/1203/04 (H5-VN04) expressed from pcDNA3.1 (on 293T cells and on pseudotyped … (influenza A virus A/Vietnam/1203/04)); assay: cell-based or functional assay
[5] = target: T1, recombinant full length HA of …; assay: BLI, IgG1 (legend of FIG. 15)
[6] = target: T1, recombinant full length HA of …; assay: BLI (Octet RED96), IgG1, recombinant HA
[7] = target: T2, recombinant full length HA of …; assay: BLI (Octet RED96), IgG1, recombinant HA
[8] = target: T2, recombinant full length HA of …; assay: BLI, IgG1 ('further experiments', FIGS. 15A and 15B)
[9] = target: recombinant full length HA of A/mallard/Astrakhan/263/82 (H14-AS82) (influenza A virus …, UniProt P26136 18-568); assay: BLI, purified recombinant HAs; antibody format not stated here

B1: 3I14 IgG1 (wild type) (antibody, V domains shown)
VH: QVQLLESGGGVVQPGRSLRLSCAASGFTFSNYGMHWVRQAPGKGLEWVAIISFDGSKKYYANSVKGRSTISRDNSKNTLSLQMNSLGPEDTALYYCAKLPSPYYFDSRFVWVAASAFHFWGQGILVTVSS
VL: NFMLTQPPSASGTPGQRVTISCSGSSSNIGGNTVHWFQQLPGTAPKLLIYTNSLRPSGVPDRFSGSKSGTSASLAISGLQSEDEADYYCAAWDDSLNGQVFGGGTKLTVL
Binder B1 has a Kd [1] greater than 1 nM, a Kd [2] of 1.02 nM and a koff [2] of 0.000383 s⁻¹. It also gave a kon [2] of 375000 M⁻¹ s⁻¹, a Kd [3] of 0.263 nM and a koff [3] of 3.99e-05 s⁻¹. For the same binder, the kon [3] was 152000 M⁻¹ s⁻¹, the “IC50, neutralization of H5-VN04 pseudovirus” value [4] was 0.0816 µg/mL and the “IC50, neutralization of pseudovirus” value [4] was 2.14 µg/mL. For the same binder, the Kd [5] was 1.15 nM, the Kd [6] was 1.02 nM and the koff [6] was 0.000387 s⁻¹. The kon [6] was 327000 M⁻¹ s⁻¹, the Kd [7] was 0.263 nM and the koff [7] was 3.99e-05 s⁻¹. For the same binder, the kon [7] was 152000 M⁻¹ s⁻¹, the Kd [8] was 1.96 nM and the Kd [9] was less than 0.1 nM.
